For 17 sequences, protein production results are on record in a protein production outcome set (Wang et al. 2014).
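Also: failed if final PepcDB status was selected cloned or expressed and not failed if soluble or beyond.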

The nature of the data set: label from the status in PepcDB records.
In the case of “MTASTAPQTEPHKTSAPESGPVMLLVATIKGAWFLASDPARRTWELRGPVFLGHTIHHIVQDPREPERMLMAARTGHLGPTVFRSDDGGGNWTEATRPPAFNKAPEGETGRVVDHVFWLTPGHASEPGTWYAGTSPQGLFRSTDHGASWEPVAGFNDHPMRRAWTGGEQDGTPDGPKMHSILVDPRDPKHLYIGMSSGGVFESTDAGTDWKPLNRGCAANFLPDPNVEFGHDPHCVVQHPAAPDILYQQNHCGIYRMDRREGVWKRIGDAMPREVGDIGFPIVVHQRDPRTVWVFPMDGSDVWPRVSPGGKPAVYVTRDAGESWQRQDRGLPTDQAWLTVKRQAMTADAHAPVGVYFGTTGGEIWASADEGEHWQCIASHLPHIYAVQSARPV”, the protein production entry is “not failed”.

Regarding “MPLKRLGHRVLGLVLAAMLLYGGLAPPVRNFFALPWQQRLPAAAPISLPWELPPGLARQVEVKVNSGDWSRATTGDFPRWLQLQLKLFGFIPLKNITIQLVQPVDVSPGGQAIGVFLKTEGVQVVGQAAIVDERGNKVYLARQAGLETGDAIIAIDGQKVTSDQEVANLINAAGQANRQARITVKREGHLLTLNIHPRYCQETGRYRIGVYVRDSTAGVGTLTFYDQNKGVFGALGHVVTGSDGQTAMDISGGRIVAAAIQGIHQGYRGQPGEKLGVFLENGQFSGTIQKNTIVGIFGTITGKLPGNKEIPVALADTVHPGPAEILTVIEGEKVESFQVEIERVMPHQRASGKGLVLRITDPRLLAVTGGIIQGMSGSPIIQDGQLAGAVTHVFINDPTRGYGVLAEWMLQETELVPKDKARGATVETPGSFLFVVFCVG”, the protein production entry is listed as “failed”.

For “MAAAVSTVGAINRAPLSLNGSGSGAVSAPASTFLGKKVVTVSRFAQSNKKSNGSFKVLAVKEDKQTDGDRWRGLAYDTSDDQQDITRGKGMVDSVFQAPMGTGTHHAVLSSYEYVSQGLRQYNLDNMMDGFYIAPAFMDKLVVHITKNFLTLPNIKVPLILGIWGGKGQGKSFQCELVMAKMGINPIMMSAGELESGNAGEPAKLIRQRYREAADLIKKGKMCCLFINDLDAGAGRMGGTTQYTVNNQMVNATLMNIADNPTNVQLPGMYNKEENARVPIICTGNDFSTLYAPLIRDGRMEKFYWAPTREDRIGVCKGIFRTDKIKDEDIVTLVDQFPGQSIDFFGALRARVYDDEVRKFVESLGVEKIGKRLVNSREGPPVFEQPEMTYEKLMEYGNMLVMEQENVKRVQLAETYLSQAALGDANADAIGRGTFYGKGAQQVNLPVPEGCTDPVAENFDPTARSDDGTCVYNF”, the protein production result is reported as “failed”.

Consider “ALTGHTVLVGWDGEASERIVELLGQDTSTSRAGLVICDSIITENPLPGRASFIKGDSLDSPAVLSRAGVVGAQRILVHTQSDSLTLAIVLTLKSLGPTGHVVAHFNNSERAALARTYAPELECTSNMAIEMLVRSAQDPGSSSVIT”, for which the protein production entry is reported as “failed”.

As for “MAELEAVADDLDALIDDLDYLPGHFHLEMQLNFEPRSPAPQRARDLKLQREGLRQELQLAAAPQRPAVRHLLGAFAFYLEELDEARECFLEVAHEHPGNLNAWANLAHVYGRLGQEEEEEACAARLADLMGLAEEPEAAGDPQLRAARCLAEQGYAHGFDVGCASPEERARGLAAGIALYDKALGYGQQIPMEEKRGWYFTMATLYIRLDGIFLELGSEEQKRLPAFNRTLALLRQVLKSEDPRHRALAWCYLGMLLERKDTFSTTPMGVHDCGYSGTDPLDCFGKAIEIAKNQPPILNRLAKIFYFLGKQDMAIGTCNMALDVLRDPELNWQAYCTRAKIHIRAYLHDLKRAKMGLGGMPDRNHLACAKADLEEVVRVCPGFKAYLDIGQVYYYMGVDAVQELLAVDEAALNQALVFLAKAGESELGATLPELQLLRGKCLRIKGEDANAAACFKRAVELDDAGSSHTDGFGCLLEALLAQWSQAQLSDGELGREVDAWLRRAQDKYPAARLRQELQRVWRGHTDEVLGLARALVAQGRPALVRLLFETMEREGEGASAPRDRRAVSF”, the protein production entry is given as “failed”.

For the sequence “MPTTTTDPNQKQAELSPDELQRYSRHLTLPEFGREGQEALKNASVLLVGAGGLGSPAATYLAAAGVGRIGLVDFDSVEASNLQRQILYGTSDVGRPKLDAASERLEDLNPHVDVETHEVRLTSDNALDIIDQYDVVADGTDNFPTRYLVNDACVMTGTPNVYASIFRFEGQVSVFATEDGPCYRCLYEEPPPPGLVPSCAEGGVLGILPGFIGTLQATEVIKVLTGVGEPLVGRLLMSDALNMDFRTVNVPTNPECPVCGDDPTVTELIDYEAFCGLPQSDESSPNGTADSDVSDTDDAVPETSVHDLKQRRDAGDAPFVLDVREPYEAEIASLDADQLIPVDDLEARLDELDAGPEEEIVVHCRSGARSAKATAFLREQGYDASNLEGGVLAWSEEIDDSVPQY”, the protein production result was “failed”.

With “MNYQKMNYQKLGVDILALSGGKQNVSKLTHCATRLRFEFNDSHAVQAEAIAKLPGVISVVDRGGQFQVVIGNDVQITYRAILNEIGEMNGQRTSDKNKQQKKGGIFSQIISVISTTFTPVIPAITGAGMIKALLAILKLTGLISADSTTYRLLDTISDAAFFFLPVLLAYGASIKFACNPILAMTIAGALLHPNLAQLLASGGPISFIGIPVRLADYAGSVLPIILTVWIMSYIERFAEKISPSMITFFTKPMIVLLFTAPLALVVIGPFGIFLNDLVASGAAIIDGKASWLIPMLMGGLQPFLVITGTAWAMTPIATSQLTRNGFEMINGPGMLASNIAQGAATLCVAFKTKNKNLKQLASSAGFTALLGITEPSLYGVTLKLKKPLIAAMIGGGCAGIYAGLAGLVRYAFVSPGLAALPAFIGENPMNIVHALITCAIAIVVTFALTWIMGFDDPVDETDNAQTDSTQSDARQSAPAANTTQKSQATENHAEPQTILSPLSGKLVALSDINDDVFSQGLLGQGVAIIPDNGEVVAPVSGEIITFLESKHAVGIRTDSGLELLIHVGLDTVNLNGKHFTGYIKPGDRVTAGDRLISFDLHEITRLGYDPITPVVIINSDEYASVVCTVPQPIAPMDTIINVNA”, the protein production entry was “failed”.

As for “MEVKFLDYTLRVGGEAGQGLQTIGGALAKIFSRKGYHVFTHQDYMSRIRGGHNFYQLRFSDREVMASKELVDILLALDLNTIEIHKNSVREDGFILYDSESMKKKFEGPQFIDIPFRKIALDVGKKSVMANTVATGAVLGLLDLGLDLLNDILRVTFEDKGKEIIEQNIACAEAGYNYAHSNCSRCEAFGIPEPEARKLLLIDGVQAIGMGALMSGCTFYSAYPMSPSTGILNYLASRAEEYGLVIEQAEDEIAAINMTIGASFAGARAMTGTSGGGFSLMAEGISLAGITETPLVLAEMQRPGPATGLPTRTEQGDLLFVLNAGHGEFPRVIFEPGTPEQAFYLTSKAFELAEKYQIPVFILSDQYLGESEWTFESFDLKRPVYNDYRVREKDLEGAEDYKRYGYTDTGISPLAVPGEAGKHLVVADSDEHDEEGHIIEDAETRIKMVQKRLLKKLPLIKEEIEAPLLYGDSSPEIVLVGHGSTYGVIKEIVDIFSKDKKIAMMHFSQIYPFPERDRFDYIEFLKNANLVISVENNATGQFAKLMRAETGFEFARQILKYDGRPFTIEKLKEEIDACL”, the protein production entry is recorded as “failed”.

Take “MDNSLLSEIWRQSLAFPWLSAVILNSFLLALAAIAPKKLLTPWGYGHAWVLGVIIWAALGWRGYLVVLAYFFVGSAVTRIGQKEKEAAGIAEKRSGQRGPENVWGSALTAALCALAIAFGPEPWQLWLALGYVASFSTKLSDTTASEVGKAYGKNTFLITTLQPVPRGTEGAVSVEGTLAGFAAGLALAVLGYGVGLISFGGIIFSTLAAFIATNLESVIGATLQNKWPWLTNEVVNGINTFLGAAIAIGIEATAQLI”: the protein production entry was “failed”.

As to “KVGVLVAAHGMSTASSMAQVVGQLLDDYDVQAFDMPLDMDPSVAYDHVKRRVEKLDSGKGILLLVDMGSLTTFGERIQQETGIATRTIDMVTTPVVLEAVRKASLVDSDLDSMYQELVGFKGYSRISRNLPTDSQ”, the protein production entry is given as “failed”.

For “MSRTVMCRKYHEELPGLDRPPYPGAKGEDIYNNVSRKAWDEWQKHQTMLINERRLNMMNAEDRKFLQQEMDKFLSGEDYAKADGYVPPSA”, the protein production result was “not failed”.

As to “KVVLYARVSSKQKDELVNQVKYLEEQVKEYDLVITDIGSGLNMKRKGFLKLLRMILNNEVSRVVIAYPDRLVRFGFEILEETCKAHGCEIVVLNQEEKEEELVEDLISVLVSFSEKLHGMRSHEYEKVKKCAEELKN”, the protein production result is given as “failed”.

On to “MSTVNGANIQSEEQHTGGCSAGCSGGSTGGSTDGSTGGNTQQGCSCDTHDEQRDGSVAAQTFGEEGPVKTLGRIGSKLVVLSGKGGVGKSTVAVNLAVGLARAGRKVGLLDVDVHGPSVPRLLGLTGTRPMIGEDAMYPVGWRNNLRVMSLGFFLPDPEQAVIWRGPVKMGLIRHFLTEVRWGDLDHLVVDCPPGTGDEPLSVLQLLGTDAQAVIVTTPQGVAVDDVRRSVGFCRELGNPILGIVENMGGYVCPKCGELTPLFPAGGGEALAAEQGVTFLGRIPLHPDLTSAGDAGRSLYEADAAHPIVRALAPIVERAAATLHASDIRHESTTGPQSEAAPGTGKTAATMPTAPTRNESCAPATNHPDTNGDTTMKIAIPVAGDVLCQHFGHCERFALIDVDPATGSVTGRNDVTPPPHEPGLLPVWLSEKGANLVIAGGMGARARALLEERGVKVLIGAPAAAPEAIVAAHMAGTLTLGANTCDH”, for which the protein production entry was “failed”.

Consider “MAKKDNFEEYAQLEEYASAEDISRVRAELLTCPELNTSLAGTIIEIDKNYAKSILITTSEMVADDQGLIFDAFIFAAANYVAQASINKEFSVIIGSKCFFYAPLKLGDVLELEAHALFDETSKKRDVKVVGHVKEVKMFEGTIQVVSTDEHIFKLKRPPLNTVKPTENQEQGAKINNPEAVAAALMASVGGK”, for which the protein production entry is given as “failed”.

Turning to “MRATACWFVSGLVTFKSENKTRRLVSATHNSRPSMSRVRSWILVVGVLVGAVGGCAEPQDGRGPATADSIAATAPGTDVVGAPLDASGDTLRMGRPTPVTTRPGYDNQPAFLPDGSGLVWTAIHDGQADVYRKIEDEGGPAPVTDTPESEFSPTPRPGGALTLVRVEADGRQRLWRYRADGTPDAPVLPDADSVGYHAWLDSSRVALFVLGAPPTLHVANVKSGTDTVVARRIGRSLQSVPGRADVSFVQVGPDSSVAIHRLDGASLTTRRLTEAPTNAPTGDHAWTPGGHLLMTTEDSLVAWRRGRADWRPVAALDTMDVSRLAVSPSGDRLAMVAAE”, the protein production entry was “failed”.

In the case of “MADATRIPDSVTLPELTLRGVLLGALITVIFTASNVFLGLKVGLTFSSAIPAAVISMSVLRMFRDANILENNMVQTQASAAGTLSAIIFILPALVMMGHWQGFPFWQTLAICGAGGMLGVMFTIPLRHIMVVQSDLPYPEGVAAAEILRVGSAEAPDTAPGRRGASGMGDILAGGGVAALVSLATGGLRVLGDSFSWWGQLGASVFRLPMGFSLALLGAGYLIGIVAGVAMLVGLLIAWLVAVPVLTATTPMPDGQSISAFANSLWASQVRFIGAGVIGVGAIWTLATLFMPMVRGVRTSFAAFGRSGEAAYGSAPRTERDLPSRWISLITLALVAVLVGVFAAFLQPAVLSPGARWGLVAYAVVFAFVFGFLVAAACGYMAGLIGSSTSPISGVGIVAIVLVSLLMLAIQRGDGLLATPQGLQMGIALAIFTTSAVVAVASISNDNLQDLKTGWLVGATPWRQQVALLIGCVVGAAVISPVLELLYNAYGFGDALPRPGMDPSQALAAPQATLMLAIAQGIFTHQLNWTMILIGMGVGVALIVIDQVLRRTCRVARLPVLAVGIGIYLPPSASAPIVVGAVLAWLLEGALRRRAAAAGQDYERYAEGPNRRGVLVASGLIVGESLVGVLLAAVIGATGDEAPLAVVGAGFGPTAEWLGFVVFAAVAVWIYRRVVRTRPEQA”, the protein production entry is recorded as “failed”.

Regarding “MAQPLFSLDGQSLITPQSVSNKFPSPHNHNETDRLRIAEAEFAVVINIAVQRFAAGKNLPDAVRWLIGQLHDIRQKFGAAVWQKIIPIIQAHPSATILQQCPFTRWSFEKPRGYSGDAGLIDFIYGHPAVAEEVARSTPLGLNIFEYTINAPGPVAVRERRDTLTRYVDETAVRTGSDTEILAIAAGHLREAEASKALAEGRLKRWVALDQDPESIGSISSQFHGTSVQPINGSVRGLLARKHQIGTFDLIYAAGLYDYLTDKVAIRLTQICMEMLKPGGVFLFANFSDEMADDGYMESYMNWELLQRSEADMWRITNAGATQNAVDKTVWFGANRNIIYSTIRKRS”, the protein production entry is reported as “failed”.
